Assay results: the supplement of paper PMC12636428

Test system: Saccharomyces cerevisiae
Experiment: transcriptional activation domain activity (GFP:mCherry ratio, weighted mean of sorted bins, harmonized to initial dataset scale) (arbitrary fluorescence ratio units); higher = stronger transcriptional activation
Settings: beta-estradiol 1 µM; induction time 4 h
Description: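 53-aa protein tiles (fungal proteins plus yeast TF control tiles) fused C-terminally to a DBD-estrogen-binding domain-mCherry synthetic TF, integrated in S. cerevisiae (URA3 locus) with a GFP reporter. Cells were induced with 1 uM beta-estradiol for 4 h at 30 C, FACS-sorted into 8 bins by GFP:mCherry ratio and barcodes sequenced. Activity is the read-weighted mean bin fluorescence (GFP:mCherry), averaged over barcodes (median 12); tiles under 50 reads were discarded. New active-learning values were harmonized by linear fit onto the scale of the initial (Hummel et al.) dataset. The assay saturates at low and high signal.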

Sequence | transcriptional activation domain activity
EAANGDDAEPAAEQNGADIQTAAASPAESTKKDNKKKDKKRSREEEGANGAAA | 39500
FFHVTIRVASQACGIGFGILGFRNTNLFLAFLILGAEGYFSLVLCAFRFLISW | 48000
EGTGYITVSSGTRYVRLVGARGEEGEGVFGGGRRRRVEVVDFSRARVRAAQIG | 49000
AILIRSIFRVAEFAGGCVVSFSLWMCHKTTCIFLRFDTLPLWLAMSLYCVVWP | 49700
RQCMLYLIAYFMLQETFGTYFNVTGILQNEYYRPSFGLLPLLMRARIIHYSPL | 34600
ALVADPEYQRELDYMANGKQLLVPLRYLLNLVWRYCHGAQTICFSFFLLHGRN | 64200
AWWIGLSGGLYGCITLMPIFFHDSPYYAPLSFTAWFLYMESFWYLPFLDLCYL | 46000
MAASDGPSPKKRKFARAVNTCAPCARRKVKCDRESHAPCSNCRKRRETALCEP | 9660
MLPQLIWGCFIFGLASILLCVTFIPNPSHGYIRMRQSYNSFKLYIFGPSFTYL | 74800
LALVIDVRFPKHPTMSNYSLVCAVRALLDFVELARYPVHTDATLRLLNDALRV | 51200
LQKDKFKVELQLLDIRVSDKLLMGIEKAIREFLTQKFVICRRVFVPWVPKVLF | 61500
LLSEESLRTMGLRTVKDILLRCASERAILTLVDFPLRVLVMVAQIRTGLWVRN | 36800
CQWWKYLMERLLLLPPLVRVQIILLLFAFVIPKLHLHAHTLACQLVFSLNFLL | 51200
MIISAVYITYFFSLSYLFFPLYLFIVYPFFSFLFNLLAKDTFIVDTYIIVFFA | 50600
EGEREREREGEEMEEVMREGTNREEKKEEEEEGKRKDKRRKETGNLLLLLVVV | 40400
TAPFPILEDQCPALNLDRSNNDLLLQNNISFPKGSDLQAIQLTPISGDYSTYV | 92600
FSLLSFCCLLVPLLLSYIPLTTSHVFPILLFFFTLPLTSALPLLLLYLFHELL | 47000
MMAPSCSICLPLVLPPLLCQIFSPLILSLFPYPLHCLCMLFFQLIYMPLFFFF | 68200
TSSSTAAPAVKRDEKPVKEKKPPAPQAPLEPGAVPEKRKRGRPRKVVSPPVPV | 49500
RSGYGSRDLYEYDLIEVRRTQVETALILTGLISLMKTNRSRERYVHTEHVTGT | 39500
EGEEGEEGEEGEEGEEGTCCASPLQSLALSRLRLGLSLLVDCISIESMRTYRL | 34500

Sequence | transcriptional activation domain activity
LFFLLLPLLLHVIRIKSNMASSWVMVPLDFQPRHLIPLVENSHCLRNLQIFWL | 71300
APIDCPHRRLEVIMGLRPTRHIVLSILGLVITGFVSMDRADCIEFLLDLEPGD | 39800
RCLVLFLWALDTIHFAFTSHGLYFYLVTSFGDFAVLLSPTWTILAQVYVTNLS | 50100
MSSPTSSLFFVSPPVGCYRYLLFFFFSSFWLLFVFLRSVPFGPTLLLFFFYFN | 42400
ENEDDAFGALNYNSLDATTMSAFDNNVDPFNILKSSPAQDQQFIKPSMMLSDN | 77200
AMFAVSILIMIQVNTSAVFFAVDTMLLYLCMELGFTFIYTILVTSRLLVMRCQ | 56600
YMYSAFMRFFILGWPSYLVVVASIAVVLLLHILYFLVQLQLKNIFLLLLHCFA | 60400
EKESVCYKLRLNRDSLSIMKDFLACKHEHDPSLIVLAHVLLYKVTATFVKAVS | 53500
AVIRKIRLLVCLAREQALRGYALEMVIHGLKPFIVDSYCSQDTIGVVQYLLHR | 46700
LKDEVMKIKPVQKQTRAGQRTRFKAVVIVGDSNGHVGLGIKTAKEVATAIRAA | 81600
GLVYMIGVYSISGLDRTLQMIHAILHVNFNSLVHKKGITHSCLLWLILIFFGL | 48000
DAESDNEEGAAGAADKKKKKKKKGASTAATSTPAEDEAAAAKGKKKPAAPLAA | 53700
MGCKLIILFSSAMLFLFFSVLFLLLPLFFLSPTTCFLSFWLRLWLLLMVHWGR | 47600
MACLFPCMLIFIFLLFISSFFLCFFHSLVSHLPHCVLVLFFISFLLTILTFFF | 50200
DPPKRGRGRPKGSKNKKSTGVAAAAPAPAAGPSTGEKRKRGRPPKPKPEGEAG | 43800
RLPNEWGWVLNVHLCIFYTIAFCFSVYQFCLDVIIGFPQMPWLESLSLLLPVL | 37500
RTYVQYWIQAFPKIARFFTIFFAAMSVTRYKAFMDSPVLALNNLAKRILRMSL | 44500
DVYNEGHICNHSDDEGRYAYKYQPTMILYAIRALLRSLSVLIGAEEELGNAVA | 36400
VYSYKKRMWHYFLFDLCYYVNIINLVYIWILPQSAWLFVACYCLSHGSVASAV | 58700
CCMVWGRRWLIVLFPIFCLITVFVFKILEVFTGAFSWVENVRFLVVYLSCILA | 34800
KGRSRENSRQRGNEDRVARGRDESRSRKTGGREASEDRGRSISRQWTPKPAKR | 22600

Sequence | transcriptional activation domain activity
MVIFRLGSAPFFFLLFLFVLFFRFFFLVCCCLYGWVSVFLLLFFLRFFVSKWG | 50700
ARAYISLCWRMIVTKGLHRPPVSSVVDKALRKRQLKLLMVLYYNDFTNAVYSG | 52300
KEEEQKGEKEEDESEKETEKEEKKEEKKEKRKLMRRKPKAEELESEASEDERE | 21700
LLLRGSTFSFLLSSFLHFFIALVNCMLYTPPKFFKNPFCMFILFYLSYLLWGT | 66000
RGYDIAKVSNSADLVSWVIAWLLCNNPHIVFIHFGFSYDILVLAAHALHILDC | 38500
RKAKATAKEGDKEKSDGGEKLKKASKRSDGEDDKAGQRSSGNKKSRAKKRAED | 16400
IWRRQQVELWCNYRVPGRQWLFGHKRLRHVIHLIPGRTHLSLYSSVDRIFCLH | 48600
MHRLHYLMCIIIGVRLTAVVGLGRHRVVYVYCFCFSDTSRKMVRQDGIKLFTA | 43200
PLIDLFGKDHLCLVKAAYHKIFGIVFESGTDLTDHVRRMLCTRSDFARTILPL | 82800
LEGPPLEKTGSDILQQVCNVLPSFEQSSKIITDFFNTELETNEVSEVLDKTKI | 49900
KIHLVNMAQVVVIFLHRILYGIIPLFEITTCAYFPLLVSLWHLAYILFYVVMF | 81600
MICCDLSFGGKLFCKQLFLLLLVFCAILHYNWRWVYSDVLVMILMLAMIISLA | 43600
KQYCVRPNSGRIEVGSEVEVQVLLQAMREDPPPDARCRDKFLVQSVAITPERD | 42800
MGLWARFFCFVIVCFQITFLYCLFSFSPSFLDLQKTQPLFFTFFFFCSFPSFP | 44200
TPSSTATTAAPAATSAATPSLFSKPATTSAAPATATAAASTPSGNLFGAKAAA | 47500
MLGPFSVFLSVFPPFAAGFGTALFPFFFSCCLCFCCWCTSFALFAPLTALFAV | 53300
VAGVKSDWDASSDEEEKPVPVAERVNGASSQKSAASKSPSKVTPMPSKTAHLV | 21300
AAAPAAANDGFHEVHHNRGGRGRGGHQGEGRGGYRGRGGPRGEFRGRGRGRGR | 42000
ASENSESSDSSDDEADVPSRKGNAASAVNTMADDDDDEEGGGGATTAAAARTK | 16900
